Source: US8852956
“And” between values parts separate entries of the source, which are not always exact repeats. Identical values can stand only once.

Tests used:
[1] = biological target: Rap55, T^2-ELISA construct, cell-free expressed from PCR product with N-terminal VSV-G and C-terminal HSV epitope tags (UniProt Q8ND56); assay: dual-reporter T^2-ELISA, against the single-reporter HRP control
[2] = biological target: Rap55, T^2-ELISA construct, cell-free expressed from PCR product with N-terminal VSV-G and C-terminal HSV epitope tags (UniProt Q8ND56)

Sequence of UniProt Q8ND56 (Q8ND56 1-463, tags or fused parts left off): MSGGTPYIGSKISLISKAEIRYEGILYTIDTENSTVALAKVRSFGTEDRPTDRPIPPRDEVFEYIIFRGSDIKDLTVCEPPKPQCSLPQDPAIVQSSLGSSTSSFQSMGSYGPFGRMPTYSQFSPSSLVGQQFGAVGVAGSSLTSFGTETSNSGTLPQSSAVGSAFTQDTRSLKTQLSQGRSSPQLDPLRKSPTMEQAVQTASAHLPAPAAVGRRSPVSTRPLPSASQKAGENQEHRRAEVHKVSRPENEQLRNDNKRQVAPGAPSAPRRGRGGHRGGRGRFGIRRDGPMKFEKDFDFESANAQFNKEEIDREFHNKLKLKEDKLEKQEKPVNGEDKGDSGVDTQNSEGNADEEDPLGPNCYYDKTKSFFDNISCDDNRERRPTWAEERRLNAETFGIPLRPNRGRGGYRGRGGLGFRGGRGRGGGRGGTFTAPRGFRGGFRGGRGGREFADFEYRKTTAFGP

## anti-VSV-G horseradish peroxidase (HRP) labeled monoclonal antibody (Clone P5D4, Roche Applied Science)
[1]
  Percent of Control (HRP detection, VSV-G tag): 96.5%
[2]
  Signal to Noise: 698 and 760
